Patent US11254722B2, “Recombinant proteins and uses thereof” (ACADEMIA SINICA, priority 2017, dated 2022)

Legend:
[1] = biological target: T1, nrgEGF (amino acids Thr176-Lys246 of neuregulin-beta 1) (Homo sapiens, UniProt Q02297); assay: Biacore binding to nrgEGF
T1 construct: Thr176-Lys246 of neuregulin-beta 1; purchased R&D Sciences or SinoBiologicals
T1 sequence (Q02297 176-246 isoform Q02297-6): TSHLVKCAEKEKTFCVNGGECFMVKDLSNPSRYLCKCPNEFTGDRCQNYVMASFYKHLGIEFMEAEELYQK
Description: (§1) Biacore binding was performed at David Myszka's laboratory at the University of Utah or at the Genomic Research Center at Academia Sinica. Surfaces of binding protein chimera were made via chemical immobilization on a CM4 chip using standard amine coupling chemistry. […] Excess surface carboxyl activated sites on all four flow cells was blocked using the doubly positively charged species ethylenediamine. Binding experiments (but not immobilizations) in HBS-P (10 mM HEPES pH 7.4, 150 mM NaCl, 0.05% P20), The HBS-P was supplemented with BSA at 0.2 mg/mL, or HBS-P was supplemented with 500 mM NaCl (650 mM NaCl, final concentration). Analytes were also reconstituted in the corresponding buffer. All experiments were performed at 25° C. 1/150 dilutions of phosphoric acid were used to regenerate IGFBP3-Fc surfaces and a sequence of 3 M MgCl2 followed by 5 M GuCl was used to regenerate surfaces immobilized with growth factor. Dissociation constants reported below used immobilized binding protein unless noted. Differences between binding constants may be expected between growth factor immobilization and chimera immobilization.
(§2) In this example, erbB4 domain 1 was attached to the N-terminus of the recombinant IGFBP3-Fc or the recombinant IGFBP3-v1v2-Fc.

[2] = biological target: T2, nrgECD (amino acids Ser2-Lys246 of neuregulin beta 1) (Homo sapiens, UniProt Q02297); assay: Biacore binding to nrgECD; conditions: immobilized nrgECD
T2 construct: Ser2-Lys246 of neuregulin beta 1; purchased R&D Sciences or SinoBiologicals
T2 sequence (Q02297 2-246 isoform Q02297-6): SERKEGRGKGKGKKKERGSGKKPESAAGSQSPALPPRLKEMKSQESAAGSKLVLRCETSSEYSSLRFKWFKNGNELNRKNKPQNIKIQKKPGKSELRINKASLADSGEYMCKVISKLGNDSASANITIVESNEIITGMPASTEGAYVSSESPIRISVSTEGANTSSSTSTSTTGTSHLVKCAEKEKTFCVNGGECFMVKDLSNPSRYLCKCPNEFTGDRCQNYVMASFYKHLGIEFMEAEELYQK
Description: as §1, §2

VEGF = biological target: T3, VEGF (Homo sapiens, UniProt P15692); assay: Stability: VEGF binding remaining after overnight incubation; type: physicochemical; conditions: experiment 3-192
T3 construct: purchased R&D Systems
T3 sequence (P15692 27-191 isoform P15692-4): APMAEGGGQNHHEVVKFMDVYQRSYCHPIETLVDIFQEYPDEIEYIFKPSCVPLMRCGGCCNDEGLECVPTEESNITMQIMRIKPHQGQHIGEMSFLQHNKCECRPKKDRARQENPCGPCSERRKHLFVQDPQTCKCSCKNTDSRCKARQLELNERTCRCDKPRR
Description: (§3) Plates were coated with goat anti-human Fc antibody, blocked and then incubated with chimera as in the Fc ELISA. Biotinylated IGF-1 (GroPep) or VEGF-Biotin (R&D Systems VEGF biotinylated with sulfo-NHS-LC-biotin as per instructions (Pierce) was added for 2 hours followed by streptavidin-HRP (Jackson Immunoresearch) for 30 minutes. Chromogenic development with tetramethyl benzidine was performed as described above.
To test the stability of the present chimeras, some purified chimeras (see, Table 4) were incubated with PBS or a conditioned medium from the MCF-7 cell line overnight at 37° C. and PBS overnight at 4° C. The IGF-1 binding and VEGF binding were measured using the biotinylated IGF-1 and VEGF.

HUVEC cells = assay: HUVEC proliferation assay; type: cell-based; conditions: for inhibition of VEGF-induced proliferation of HUVEC cells: FIG. 6, FIG. 13
Description: (§4) MCF-7 cells (a breast cancer cell line) were maintained in MEM (GIBCO) plus insulin and NEAA and 10% FBS (Hyclone).
(§5) For the proliferation assay, cells except for HUVEC were seeded at a density of 1,000 to 6,000 in 96 wells in an assay buffer of DMEM/F12 plus 0.2% BSA and 10 ug/ml transferrin. Chemical inhibitors were added after 16-20 hours after plating; IGF-1 or other growth factors or test chimeras in assay buffer were added at the time of plating or 16-20 hours after plating. 5,000 HUVEC ells were plated in poly-L-lysine coated 96 wells in M199 with 1%/FBS and HEPES. After 3 to 4 days of culture, growth was determined by incubating cells with Alamar blue for 4 to 6 hours and then the fluorescence (RFU) at 544/590 nm was read. For long term proliferation assays, cells were plated in the growth media with 5% or 10% FBS at densities of 500 to 10,000 cells per cm^2 growth area and grown for 7 to 21 days. Inhibitors and effectors were added 1-4 days after plating. Cells were exposed to cisplatin or gemcitabine for two days. Medium was renewed twice weekly. At completion, cells were fixed and then stained with Giemsa.
Growth factor synergism can also be observed in the proliferation of HUVEC cells.

[3] = test system: MCF-7 breast cancer cells; assay: MCF-7 proliferation assay; type: cell-based; conditions: FIG. 5
Description: as §4, §5
We next examined the effect of 56662 (BP3/Fc) on the proliferation induced by growth factors that interacted with the IGFBP3. The proliferation of MCF-7 breast cancer cells was induced in serum-free medium by individual growth factors like IGF-1, IGF-2, EGF, TGF-a, Nrgbx, b-FGF, and amphiregulin (FIG. 1).

hep3B cells = assay: hep3B proliferation assay; type: cell-based, human; conditions: FIG. 22A
Description: as §5
The human hepatoma cell line hep3B could be stimulated by many growth factors including IGF-1, IGF-2, HGF, bFGF, VEGF, and neuregulin.

IGF-1 and VEGF = assay: Competition binding ELISA with biotinylated IGF-1 or biotinylated VEGF; conditions: competitive inhibition data, FIG. 8 and FIG. 9
Description: as §3
ELISA plates were coated with 0.5 μg/ml growth factor (IGF-1, IGF-2, VEGF, etc.) in PBS overnight and blocked as described above. After overnight incubation with chimera, chimera binding was detected with anti-human Fc-HRP and development with tetramethyl benzidine as described above.
Binding specificity was also studied by competition binding assays using biotinylated IGF-1 (IGF-1-bio) or biotinylated VEGF (VEGF-bio) in the growth factor ELISA assay.

B1: IGFBP3-erbB4-Fc: ErbB4-GS-IGFBP3-gly 3 linker-Fc, SEQ ID NO: 22 (protein)
chain: MSEVPVARVWLVLLLLTVQVGVTAGVQPSDSQSVCAGTENKLSSLSDLEQQYRALRKYYENCEVVMGNLEITSIEHNRDLSFLRSVREVTGYVLVALNQFRYLPLENLRIIRGTKLYEDRYALAIFLNYRKDGNFGLQELGLKNLTEILNGGVYVDQNKFLCYADTIHWQDIVRNPWPSNLTLVSTNGSSGCGRCHKSCTGRCWGPTENHCQTLTRTVGGGGSGGGGSGGGGSGGGGSGGGGGASSAGLGPVVRCEPCDARALAQCAPPPAVCAELVREPGCGCCLTCALSEGQPCGIYTERCGSGLRCQPSPDEARPLQALLDGRGLCVNASAVSKGHAKDSQRYKVDYESQSTDTQNFSSESKRETEYGPCRREMEDTLNHLKFLNVLSPRGVHIPNCDKKGFYKKKQCRPSKGRKRGFCWCVDKYGQPLPGYTTKGKEDVHCYSMQSKVECPPCPAPPVAGPSVFLFPPKPKDQLMISRTPEVTCVVVDVSHEDPEVKFNWYVDGVEVHNAKTKPREEQYNSTYRVVSVLTVLHQDWLNGKEYKCKVSNKGLPSSIEKTISKAKGQPREPQVYTLPPSREEMTKNQVSLTCLVKGFYPSDIAVEWESNGQPENNYKTTPPVLDSDGSFFLYSKLTVDKSRWQQGNVFSCSVMHEGLHNHYTQKSLSLSPGK
Q: B1 was tested. Which Kd [1] did it give?
A: Its Kd is 6 nM.

Q: What about the Kd [2] of the same molecule?
A: The Kd was 0.004 nM.

B2: Chimera B: IGFBP3 with IGFBP3 linker deletion 1-GS 16 linker-v1v2-Fc, SEQ ID NO: 19 (protein)
chain: MSEVPVARVWLVLLLLTVQVGVTAGGASSAGLGPVVRCEPCDARALAQCAPPPAVCAELVREPGCGCCLTCALSEGQPCGIYTERCGSGLRCQPSPDEARPLQALLDGRGLCVNASAVSKGHAKDSQRYKVDYESQSTDTQNFSSESKRETEYGPCRREMEDTLNHLKFLNVLSPRGVHIPNCDKKGFYKKKQCRPSKGRKRGFCWCVDKYGQPLPGYTTKGKEDVHCYSMQSKGGGGSGGGGSGGGGSGIYIFISDTGRPFVEMYSEIPEIIHMTEGRELVIPCRVTSPNITVTLKKFPLDTLIPDGKRIIWDSRKGFIISNATYKEIGLLTCEATVNGHLYKTNYLTHRQGYRIYDVVLSPSHGIELSVGEKLVLNCTARTELNVGIDFNWEYPSSKHQHKKLVNRDLKTQSGSEMKKFLSTLTIDGVTRSDQGLYTCAASSGLMTKKNSTFVRVHEKVECPPCPAPPVAGPSVFLFPPKPKDQLMISRTPEVTCVVVDVSHEDPEVKFNWYVDGVEVHNAKTKPREEQYNSTYRVVSVLTVLHQDWLNGKEYKCKVSNKGLPSSIEKTISKAKGQPREPQVYTLPPSREEMTKNQVSLTCLVKGFYPSDIAVEWESNGQPENNYKTTPPVLDSDGSFFLYSKLTVDKSRWQQGNVFSCSVMHEGLHNHYTQKSLSLSPGK
Q: B2 was tested. Which “VEGF binding remaining over control, mcf7” value (VEGF; MCF-7 conditioned medium overnight at 37° C.) did it give?
A: Its value is 73%.

Q: And the “VEGF binding remaining over control, 37 con” value (VEGF; PBS overnight at 37° C.)?
A: Its value is 101%.

Q: What about the “inhibition of VEGF-induced proliferation of HUVEC cells” value (HUVEC cells) of the same molecule?
A: The value was “potent inhibition”.

B3: chimera A: IGFBP3 with IGFBP3 linker deletion 1-gly 3 linker-v1v2-Fc, SEQ ID NO: 14 (protein)
chain: MSEVPVARVWLVLLLLTVQVGVTAGGASSAGLGPVVRCEPCDARALAQCAPPPAVCAELVREPGCGCCLTCALSEGQPCGIYTERCGSGLRCQPSPDEARPLQALLDGRGLCVNASAVSKGHAKDSQRYKVDYESQSTDTQNFSSESKRETEYGPCRREMEDTLNHLKFLNVLSPRGVHIPNCDKKGFYKKKQCRPSKGRKRGFCWCVDKYGQPLPGYTTKGKEDVHCYSMQSKAPPAPGNASESEEDRSAGIYIFISDTGRPFVEMYSEIPEIIHMTEGRELVIPCRVTSPNITVTLKKFPLDTLIPDGKRIIWDSRKGFIISNATYKEIGLLTCEATVNGHLYKTNYLTHRQGYRIYDVVLSPSHGIELSVGEKLVLNCTARTELNVGIDFNWEYPSSKHQHKKLVNRDLKTQSGSEMKKFLSTLTIDGVTRSDQGLYTCAASSGLMTKKNSTFVRVHEKVECPPCPAPPVAGPSVFLFPPKPKDQLMISRTPEVTCVVVDVSHEDPEVKFNWYVDGVEVHNAKTKPREEQYNSTYRVVSVLTVLHQDWLNGKEYKCKVSNKGLPSSIEKTISKAKGQPREPQVYTLPPSREEMTKNQVSLTCLVKGFYPSDIAVEWESNGQPENNYKTTPPVLDSDGSFFLYSKLTVDKSRWQQGNVFSCSVMHEGLHNHYTQKSLSLSPGK
Q: For B3, which “inhibition of IGF-1-induced proliferation of MCF-7, compared to 56662 and chimera B” value [3] is on record?
A: Its value is “a smaller EC50 and a higher maximal inhibition”.

Q: And the “rescue by HGF, bFGF, or IGF in hep3b cells treated with erlotinib” value (hep3B cells)?
A: Its value is “decreased the rescue”.

Q: What about the “simultaneous binding of IGF and VEGF” value (IGF-1 and VEGF) of the same molecule?
A: Its value is “could bind simultaneously”.

Q: And the “inhibition of VEGF-induced proliferation of HUVEC cells” value (HUVEC cells)?
A: Its value is “potent inhibition”.

Q: What about the “inhibition of HUVEC proliferation stimulated by IGF-1, bFGF, HGF, VEGF, and combinations” value (HUVEC cells; FIG. 14) of the same molecule?
A: The value was “inhibited”.
